Measurements published in article PMC4212957, “The serodominant secreted effector protein of Salmonella, SseB, is a strong CD4 antigen containing an immunodominant epitope presented by diverse HLA class II alleles” (Immunology, 2014).

Tests used:
[1] = test system: draining lymph node cells of HLA-DR1 transgenic mice; experiment: Murine IFN-γ ELISpot, HLA-DR1 transgenic mice primed with SseB; conditions: mouse, in vivo
Excerpt: (§1) Mice transgenic for HLA-DR1 (that is, HLA-DRA1*0101/HLA-DRB1*0101) and HLA-DR4 (that is, HLA-DRA1*0101/HLA-DRB1*0401)[24]–[26] were bred and housed in the Centre for Biological Services at the Hammersmith campus, Imperial College London, UK, in accordance with Home Office regulations and College ethics review. Both transgenic lines are maintained on a C57BL/6 background as homozygotes for knockout of murine MHC Class II H2-Aβ.[27]
(§2) HLA-DR1 or HLA-DR4 transgenic mice were primed, by subcutaneous injection into the footpad, with 25 μg of recombinant SseB protein administered as a 1 : 1 emulsion with TiterMax® Gold (CytRx Corporation, Los Angeles, CA). Ten days after priming, popliteal draining lymph nodes were harvested and stimulated, in triplicate, at 2 × 10^5 cells per well with 25 μg of SseB peptide or recombinant protein in pre-coated murine IFN-γ ELISpot plates (2BScientific, Upper Heyford, Oxfordshire, UK). Culture medium was RPMI-1640 containing 2 mM L-glutamine, 50 U/ml penicillin G, 50 μg/ml streptomycin sulphate, 50 μM β-mercaptoethanol and 10% fetal calf serum. Cells were cultured at 37° and in 5% CO2 for 72 hr before assay development using a biotinylated anti-IFN-γ antibody, a horseradish peroxidase detection antibody and TMB substrate (2BScientific). Developed plates were left to dry before spot counting using an AID ELISpot reader (Autoimmun Diagnostika GMBH). Positive epitopes for a given transgenic line were defined as those where more than half of assayed animals gave a greater number of spot-forming cells than 2 SD over the mean of the no protein/peptide control.
(§3) Fig 1 Definition of HLA-DR specific T-cell epitopes in DR1 and DR4 transgenic mice. (a) HLA-DR1 (n = 5) and (b) HLA-DR4 (n = 6) mice were footpad primed with ssEB protein in combination with TiterMax® Gold adjuvant. Draining lymph node (DLN) cells were assayed by ELISpot at day 10 for interferon-γ (IFN-γ) T-cell responses to ssEB peptides and protein. A peptide was defined as containing a T-cell epitope for DR1 or DR4 HLA molecules if more than half of the mice assayed gave a greater number of spot-forming cells than 2 SD over the mean of the no peptide/protein control. The 2 SD value for each transgenic line is shown by a dotted line.

[2] = test system: draining lymph node cells of HLA-DR4 transgenic mice; experiment: Murine IFN-γ ELISpot, HLA-DR4 transgenic mice primed with SseB; conditions: mouse, in vivo
Excerpt: as §1, §2, §3

Salmonella SL1344 = conditions: C57BL/6 mice, immunization with two doses; cited from earlier work
Excerpt: There have been a limited number of studies aimed at exploring candidates from the S. Typhi immunome for serodiagnostic, serodominant or protective credentials with respect to B-cell or T-cell immunity.[16]–[19] Some candidate antigens have been successfully deployed to induce protective immunity against challenge in mice; these antigens include OmpL, SseB, SseD and CirA.[16],[18],[19] Antigen arrays have been informative: an array of 2724 Salmonella enterica serovar Typhi antigens, selected on the basis of key terms such as ‘outer membrane’ or ‘chaperone’, representing over 63% of the proteom ...

B1: SseB: Recombinant SseB protein of Salmonella, codon optimized, expressed in E. coli (protein, UniProt Q7BVH7 1-196, looked up)
Secreted effector protein SseB: MSSGNILWGSQNPIVFKNSFGVSNADTGSQDDLSQQNPFAEGYGVLLILLMVIQAIANNKFIEVQKNAERARNTQEKSNEMDEVIAKAAKGDAKTKEEVPEDVIKYMRDNGILIDGMTIDDYMAKYGDHGKLDKGGLQAIKAALDNDANRNTDLMSQGQITIQKMSQELNAVLTQLTGLISKWGEISSMIAQKTYS
modifications: recombinant, codon optimized, E. coli expressed
- IFN-γ ELISpot recall response / CD4 epitope in HLA-DR1 transgenic mice [1]: highly immunogenic
- IFN-γ ELISpot recall response / CD4 epitope in HLA-DR4 transgenic mice [2]: relatively large response
- protection from oral challenge (mean survival time and tissue bacterial burden) (Salmonella SL1344): substantial protection
